Test results as given in article PMC8126837 (Proceedings of the National Academy of Sciences of the …, 2021).

B1: WNb 69 (VHH)
VHH: QVQLQESGGGLVQPGGSLRLSCAASGFTLDYYGIGWFRQAPGKEREGVSCISASGTSTKYVNSVKGRFTISRDNAKNTVYLQMNSLKPEDTAVYYCAAISGSYYYTSLHPVEYDSWGQGTQVTVSS
B2: WNb 46 (VHH)
VHH: QVQLQESGGGQVQPGGSLRLSCAASGFTLDYYGIGWFRQAPGQEREGVSSISTSGTSTNYANSVKGRFTISRDNAKNTVYLQMNSLKPEDTAVYYCAAISGSYYYTSLHPVEYDYWGQGTQVTVSS
B3: WNb 49 (VHH)
VHH: QVQLQESGGGLVQPGGSLRLSCAASGFTLDYYGIGWFRQAPGKEREGVSGISASGTSTNYADSVKGRFTVSRDNAKNTVYLQMNSLKPEDTAVYYCAAISASYYYTSLHPVEYDSWGQGTQVTVSS
B4: WNb 31 (VHH)
VHH: QVQLQESGGGLVQAGDSLRLSCTASGRALNTYTVAWWRQAPGNEREFVASIIWSSGAAWYADAVKGRFTISRDNAKNTVDLQMTSLKPEETAIYFCAVGQWEGRDTWYTSYDYWGQGTQVTVSS
B5: WNb 30 (VHH)
VHH: QVQLQESGGGLVQPGGSLRLSCVASGITLDYYAIGWFRQAPGKEREGVSCLSSSDGSTYYADSVKGRFTMSRDNVKNTVYLQMNSLKPEDTAVYYCATNPLTVVDGTFHLTCLDEYDYGGQGTQVTVSS
B6: WNb 59 (VHH)
VHH: QVQLQESGGGLVQPGGSLRLSCAASGGTLDYYAIGWFRQAPGKEREGVSCIMSSGGPTYFAGSVKGRFTISRDNAKNTVYLQMNSLKPEDTAVYYCAADPHGFDCSPSGGMDYWGKGTQVTVSS
B7: WNb 1 (VHH)
VHH: QVQLQESGGGLVQAGGSLRLSCAASGRTFDRYAMGWFRQVPGKGLEWVSGIYSDGYTYYADSVKGRFTISRDNAKNTVYLQMNSLKPEDTAVYYCAADRMDGSSWPERDFGSWGQGTQVTVSS
B8: WNb 5 (VHH)
VHH: QVQLQESGGGLVQAGGSLRLSCAASGRTFSRYAIGWFRQAPGKEREGVSCISPSGGSTNYADSVKGRFTISRDNAKNTVYLQMNSLKPEDTAVYYCAASTPSYHYCSGYVSEYDYWGQGTQVTVSS
B9: WNb 70 (VHH)
VHH: QVQLQESGGGLVQPGGSLNISCASNGFTLDFYAIGWFRQAPGKEREGVSCISSSGGSSKYSDSVKGRFTISRDNAKNTVYLQMNSLQPEDTAVYYCAAQMGSSEYCPIFIPGEGMDYWGKGTQVTVSS
B10: WNb 4 (VHH)
VHH: QVQLQESGGGLVQPGGSLRLSCAASGFTLDYYAIGWFRQAPGKEREGVSCISSSGGSTNYADSVKGRFTISRDNAKNTVYLQMNSLQPEDTAVYYCAAQMGSSRYCPIFTPGEGMDYWGKGTQVTVSS
B11: WNb 3 (VHH)
VHH: QVQLQESGGGLVQPGGSLRLSCAASGFTLDYYAIGWFRQAPGKEREGVSCISSSGGSTNYADSVKGRFTISRDNAKNTVYLQMNSLKPEDTAVYYCAAQMGSSRYCPIFIPGEGMDYWGKGTQVTVSS
B12: WNb 17 (VHH)
VHH: QVQLQESGGGLVQPGGSLRLSCAASGSIFSINVMGWYRQAPGKQRELVAAITSVGSTNYADSVKGRFTISRDNAENTVYLQMNSLKPEDTAVYYCNAVSTFTQAMGGSPEHYWGQGTQVTVSS
B13: WNb 33 (VHH)
VHH: QVQLQESGGGLVQPGGSLRLSCAASGFTFSSYLMGWARQVPGKGLEWVAGIYSDGSTYYADSVKGRFIISRDNAKNTVYLQMNSLKPEDTAVYYCAKDRMEGSTWPERDLGSWGQGTQVTVSS
B14: WNb 52 (VHH)
VHH: QVQLQESGGGLVQPGGSLRLSCAASGFIFSSYAMGWARQVPGKGLEWVSGIYSDGSTYYADSVKGRFTISRDNAKNTVYLQMNSLKPKDTAVYYCAKDRLEGSTWPERDFGSWGQGTQVTVSS
B15: WNb 14 (VHH)
VHH: QVQLQESGGGLVQPGGSLRLSCAASGFTFSSYAMGWARQVPGKGLEWVSGIYSDGSTYYADSVKGRFIISRDNAKNTVYLQMNSLKPEDTAVYYCAKDRMEGSSWPERDFGSWGQGTQVTVSS
B16: WNb 9 (VHH)
VHH: QVQLQESGGGLVQPGGSLRLSCAASGFTFSSYAMGWARQVPGKGLEWVSGIYSDGSTYYGDSVKGRFTISRDNAKNTVYLQMNSLKPEDTAVYYCAKDRMAGSSWPERDFGSWGQGTQVTVSS
B17: WNb 11 (VHH)
VHH: QVQLQESGGGLVQAGDSLRLSCAASGGTFSSYLMGWARQVPGKGLEWVAGIYSDGSTYYADSVKGRFIISRDNAKNTVYLQMNSLKPEDTAVYYCAKDRMEGSTWPERDFGSWGQGTQVTVSS
B18: WNb 63 (VHH)
VHH: QVQLQESGGGLVQPGGSLRLSCAASGFTFRRYLMGWARQVPGKGLEWVSGIYSDGSTYYADSVKGRFTISRDNAKNTVYLQMNSLKPEDTAVYYCAADRMDGSTWPERDFGSWGQGTQVTVSS
B19: WNb 54 (VHH)
VHH: QVQLQESGGGLVQPGGSLRLSCAASRFTFSSYAMGWARQVPGKGLEWVSGIYSDGSTYYADSVKGRFIISRDNAKNTVYLQMNSLKPEDTAVYYCAKDRMEGSVWPERDFGSWGQGTQVTVSS
B20: WNb 45 (VHH)
VHH: QVQLQESGGGLVQPGGSLRLSCAASGFTFSSYAMGWFRQVPGKGLEWVSGIYSDGSTYYADSVKGRFTISRDNAKNTVYLQMNSLKPEDTAVYYCAADRMEGSSWPERDFGSWGQGTQVTVSS
B21: WNb 60 (VHH)
VHH: QVQLQESGGGLVQPGGSLRLSCAASGFTFSSYLMGWFRQVPGKGLEWVAGIYSDGSTYYADSVKGRFTISRDNAKNTVYLQMNSLKPEDTAVYYCATDRMDGSSWPERDFGSWGQGTQVTVSS
B22: WNb 13 (VHH)
VHH: QVQLQESGGGLVQPGGSLRLSCAASGFTFSSYAMGWFRQVPGKGLEWVSGIYSDGSTYYADSVKGRFTISRDNAKNTVYLQMNSLKPEDTAVYYCATDRMAGSRWPERDFGSWGQGTQVTVSS
B23: WNb 22 (VHH)
VHH: QVQLQESGGGLVQPGGSLRLSCAASGFTFSSYAMGWARQVPGKGLEWLSGIYSDGSTYYADSVKGRFTISRDNAKNTVYLQMNSLKPEDTAVYYCAKDRMDGSVWPERDFGSWGQGTQVTVSS
B24: WNb 8 (VHH)
VHH: QVQLQESGGGLVQPGGSLRLSCAASGFTFSSYAMGWARQVPGKGLEWVSGIYSDGSTYYADSVKGRFTISRDNAKNTVYLQMNSLKPEDTAVYYCAKDRLESSSWPERDFGSWGQGTQVTVSS
B25: WNb 68 (VHH)
VHH: QVQLQESGGGLVQPGGSLRLSCAASGFTFSSYLMGWARQVPGKGLEWVAGIYSDGSTHYANSVKGRFTISRDNAKNTVYLQMNSLKPEDTAVYYCAKDRMAGSRWPERDFGFWGQGTQVTVSS
B26: WNb 58 (VHH)
VHH: QVQLQESGGGLVQPGGSLRLSCAASGFTFSSYAMGWFRQVPGKGLEWVSGIYSDGSTYYADSVKGRFTISRDNAKNTVYLQMNSLKPEDTAVYYCAADRMDGSRWPERDFGSWGQGTQVTVSS
B27: WNb 35 (VHH)
VHH: QVQLQESGGGLVQPGGSLRLSCAASGFTFSSYAMGWARQVPGKGLEWVSGIYSDGTTYYADSVKGRFTISRDNAKNTVYLQMNSLKPEDTAVYYCAADRMEGSTWPERDFGSWGQGTQVTVSS
B28: WNb 6 (VHH)
VHH: QVQLQESGGGLVQPGGSLRLSCAASGFTFSSYAMGWFRQVPGKGLEWVSGIYSDGSTYYADSVKGRFTISRDNAKNTLYLQMNSLKPEDTAVYYCAKDRLEGSSRPERDFGSWGQGTQVTVSS
B29: WNb 32 (VHH)
VHH: QVQLQESGGGLVQAGGSLGLSCAASGRPLNSYSMAWFRQAPGKEREFVASIGRSDGLSKYNDFVKDRFTLSRGNAKTTLLLQMNNLKVEDTAVYYCSAALWDGWATDINEYDYRGQGTQVTVSS
B30: WNb 62 (VHH)
VHH: QVQLQESGGGLVQAGGSLRLSCTASRRTFSTCVMGWARQVPGKGLEWVSGIYSDGSTYYADSVKGRFTISRDNAKNTVYLQMNSLKPEDTAVYYCNLDGRYENLEDDYWGQGTQVTVSS
B31: WNb 61 (VHH)
VHH: QVQLQESGGGLVQPGGSLNISCASNGFTLDFYAIGWFRQAPGKEREGVSCISRSGSNINYAESLKGRATISRDNAKNTIYLQMSNLRTEDTAVYYCAATPSGVATAQGPCDLTRWYDNWGQGTQVTVSS
B32: WNb 34 (VHH)
VHH: QVQLQESGGGLVEAGDSLRLSCAASGRTFSRYAMGWFRQAPGKEREFVAAVSWNGGNTYYADSVKGRFTISRDNAKNTLYLQMNSLKPEDTAVYYCAAGGEPVVVIKLRNANEYDFLGQGTQVTVSS
B33: WNb 20 (VHH)
VHH: QVQLQESGGGLVQPGGSLRLSCAASGFTLEHYAIGWFRQAPGKEREGVSCISNSGGRTNYADSVKGRFTISRDNAKNTVYLQMNSLKPEDTAVYYCAADLGVVERLCPAHPGSYEYDYWGQGTQVTVSS

Molecular target: SARS-CoV-2 receptor-binding domain (RBD), wild type (SARS-CoV-2, UniProt P0DTC2, DyLight 488 (NHS ester, about 1.9 dye/protein) in the FRET assay only)

| Binder | binding result |
| --- | --- |
| B1 | binds |
| B2 | binds |
| B3 | binds |
| B4 | binds |
| B5 | binds |
| B6 | binds |
| B7 | binds |
| B8 | binds |
| B9 | binds |
| B10 | binds |
| B11 | binds |
| B12 | binds |
| B13 | binds |
| B14 | binds |
| B15 | binds |
| B16 | binds |
| B17 | binds |

| Binder | binding result |
| --- | --- |
| B18 | binds |
| B19 | binds |
| B20 | binds |
| B21 | binds |
| B22 | binds |
| B23 | binds |
| B24 | binds |
| B25 | binds |
| B26 | binds |
| B27 | binds |
| B28 | binds |
| B29 | binds |
| B30 | binds |
| B31 | binds |
| B32 | binds |
| B33 | binds |
